Results on one substance are retold here after patent US20070148130A1.

One data set relates to T1, MPRN-12.
T1 sequence: NVKGTEDSG

For another data set, the system named is T2, MPRN-20.
T2 sequence: KGTEDSGTT

On to “partially purified native TRRE (pooled Phenyl Sepharose fractions with the highest specific activity, from stimulated THP-1 cells)”, for which, in the data set on MPRN-12, the “TNF-R peptide cleavage activity (FRET assay) of Phenyl Sepharose elution fractions” value is recorded as “The leading edge of the protein peak was found to give the highest FRET signal (shown here for MPRN-12)” and the “specific activity in the FRET peptide cleavage assay” value is “a specific activity of 378 FU/µg in the FRET assay using the MPRN-12 substrate”. Further, the “TNF-R peptide cleavage activity (FRET assay) of Phenyl Sepharose elution fractions” value with MPRN-20 is reported as “Fractions 4-6 but not 7-10 also cleaved MPRN-20”.
